Source: IntAct's records for PubMed 29892012

B1: Zinc finger and BTB domain-containing protein 49 (Homo sapiens), Q6ZSB9 (parent)
chain: MDPVATHSCHLLQQLHEQRIQGLLCDCMLVVKGVCFKAHKNVLAAFSQYFRSLFQNSSSQKNDVFHLDVKNVSGIGQILDFMYTSHLDLNQDNIQVMLDTAQCLQVQNVLSLCHTFLKSATVVQPPGMPCNSTLSLQSTLTPDATCVISENYPPHLLQECSADAQQNKTLDESHPHASPSVNRHHSAGEISKQAPDTSDGSCTELPFKQPNYYYKLRNFYSKQYHKHAAGPSQERVVEQPFAFSTSTDLTTVESQPCAVSHSECILESPEHLPSNFLAQPVNDSAPHPESDATCQQPVKQMRLKKAIHLKKLNFLKSQKYAEQVSEPKSDDGLTKRLESASKNTLEKASSQSAEEKESEEVVSCENFNCISETERPEDPAALEDQSQTLQSQRQYACELCGKPFKHPSNLELHKRSHTGEKPFECNICGKHFSQAGNLQTHLRRHSGEKPYICEICGKRFAASGDVQRHIIIHSGEKPHLCDICGRGFSNFSNLKEHKKTHTADKVFTCDECGKSFNMQRKLVKHRIRHTGERPYSCSACGKCFGGSGDLRRHVRTHTGEKPYTCEICNKCFTRSAVLRRHKKMHCKAGDESPDVLEELSQAIETSDLEKSQSSDSFSQDTSVTLMPVSVKLPVHPVENSVAEFDSHSGGSYCKLRSMIQPHGVSDQEKLSLDPGKLAKPQMQQTQPQAYAYSDVDTPAGGEPLQADGMAMIRSSLAALDNHGGDPLGSRASSTTYRNSEGQFFSSMTLWGLAMKTLQNENELDQ
B2: Abl interactor 2 (Homo sapiens), Q9NYB9 (parent)
chain: MAELQMLLEEEIPGGRRALFDSYTNLERVADYCENNYIQSADKQRALEETKAYTTQSLASVAYLINTLANNVLQMLDIQASQLRRMESSINHISQTVDIHKEKVARREIGILTTNKNTSRTHKIIAPANLERPVRYIRKPIDYTILDDIGHGVKWLLRFKVSTQNMKMGGLPRTTPPTQKPPSPPMSGKGTLGRHSPYRTLEPVRPPVVPNDYVPSPTRNMAPSQQSPVRTASVNQRNRTYSSSGSSGGSHPSSRSSSRENSGSGSVGVPIAVPTPSPPSVFPAPAGSAGTPPLPATSASAPAPLVPATVPSSTAPNAAAGGAPNLADGFTSPTPPVVSSTPPTGHPVQFYSMNRPASRHTPPTIGGSLPYRRPPSITSQTSLQNQMNGGPFYSQNPVSDTPPPPPPVEEPVFDESPPPPPPPEDYEEEEAAVVEYSDPYAEEDPPWAPRSYLEKVVAIYDYTKDKEDELSFQEGAIIYVIKKNDDGWYEGVMNGVTGLFPGNYVESIMHYSE
partner: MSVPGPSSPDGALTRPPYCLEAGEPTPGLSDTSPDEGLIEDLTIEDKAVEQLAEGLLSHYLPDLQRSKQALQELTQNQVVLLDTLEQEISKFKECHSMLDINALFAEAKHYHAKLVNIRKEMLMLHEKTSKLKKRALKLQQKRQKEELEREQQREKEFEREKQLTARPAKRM
B3: Late cornified envelope protein 1B (Homo sapiens), Q5T7P3 (parent)
chain: MSCQQNQQQCQPPPKCIPKCPPKCLTPRCPPKCPPKCPPVSSCCSVSSGGCCGSSSGGSCGSSSGGCCSSGGGGCCLSHHRRRRSHCHRPQSSGCCSQPSGGSSCCGGGSGQHSGGCC
partner: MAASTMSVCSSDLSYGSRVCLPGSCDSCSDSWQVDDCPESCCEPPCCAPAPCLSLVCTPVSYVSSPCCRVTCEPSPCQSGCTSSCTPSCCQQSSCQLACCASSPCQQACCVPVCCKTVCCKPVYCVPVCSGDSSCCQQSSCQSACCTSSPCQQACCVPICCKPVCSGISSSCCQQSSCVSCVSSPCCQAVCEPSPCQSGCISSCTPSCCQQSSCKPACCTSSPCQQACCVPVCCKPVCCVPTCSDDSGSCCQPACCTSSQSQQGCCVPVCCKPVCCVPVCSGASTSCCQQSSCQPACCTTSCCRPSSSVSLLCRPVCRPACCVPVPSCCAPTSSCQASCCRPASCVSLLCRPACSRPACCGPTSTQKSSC
B4: Abl interactor 2 (Homo sapiens), Q9NYB9 (parent)
chain: B2 chain
partner: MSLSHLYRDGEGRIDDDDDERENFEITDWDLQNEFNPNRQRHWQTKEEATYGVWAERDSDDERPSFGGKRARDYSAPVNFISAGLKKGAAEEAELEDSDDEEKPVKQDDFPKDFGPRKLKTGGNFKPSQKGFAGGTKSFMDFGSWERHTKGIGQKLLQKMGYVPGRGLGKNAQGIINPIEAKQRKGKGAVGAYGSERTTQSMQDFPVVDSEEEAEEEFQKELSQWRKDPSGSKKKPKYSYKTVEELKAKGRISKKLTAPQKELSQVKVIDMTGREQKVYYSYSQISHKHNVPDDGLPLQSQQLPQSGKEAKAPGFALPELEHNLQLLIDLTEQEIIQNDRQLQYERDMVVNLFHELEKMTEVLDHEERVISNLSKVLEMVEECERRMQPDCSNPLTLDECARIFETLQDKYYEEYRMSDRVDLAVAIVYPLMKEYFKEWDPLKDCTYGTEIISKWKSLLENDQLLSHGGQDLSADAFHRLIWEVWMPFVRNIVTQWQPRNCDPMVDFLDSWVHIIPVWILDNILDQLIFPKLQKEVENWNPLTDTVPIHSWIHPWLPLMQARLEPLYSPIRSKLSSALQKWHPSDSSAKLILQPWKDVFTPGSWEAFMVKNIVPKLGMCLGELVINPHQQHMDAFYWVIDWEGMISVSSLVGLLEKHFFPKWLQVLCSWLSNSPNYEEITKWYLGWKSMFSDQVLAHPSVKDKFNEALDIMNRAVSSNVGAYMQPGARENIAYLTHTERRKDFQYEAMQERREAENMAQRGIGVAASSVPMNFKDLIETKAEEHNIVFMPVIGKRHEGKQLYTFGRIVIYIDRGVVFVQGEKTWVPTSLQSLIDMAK
B5: Galectin-8 (Homo sapiens), O00214 (parent)
chain: MMLSLNNLQNIIYNPVIPFVGTIPDQLDPGTLIVIRGHVPSDADRFQVDLQNGSSMKPRADVAFHFNPRFKRAGCIVCNTLINEKWGREEITYDTPFKREKSFEIVIMVLKDKFQVAVNGKHTLLYGHRIGPEKIDTLGIYGKVNIHSIGFSFSSDLQSTQASSLELTEISRENVPKSGTPQLRLPFAARLNTPMGPGRTVVVKGEVNANAKSFNVDLLAGKSKDIALHLNPRLNIKAFVRNSFLQESWGEEERNITSFPFSPGMYFEMIIYCDVREFKVAVNGVHSLEYKHRFKELSSIDTLEINGDIHLLEVRSW
partner: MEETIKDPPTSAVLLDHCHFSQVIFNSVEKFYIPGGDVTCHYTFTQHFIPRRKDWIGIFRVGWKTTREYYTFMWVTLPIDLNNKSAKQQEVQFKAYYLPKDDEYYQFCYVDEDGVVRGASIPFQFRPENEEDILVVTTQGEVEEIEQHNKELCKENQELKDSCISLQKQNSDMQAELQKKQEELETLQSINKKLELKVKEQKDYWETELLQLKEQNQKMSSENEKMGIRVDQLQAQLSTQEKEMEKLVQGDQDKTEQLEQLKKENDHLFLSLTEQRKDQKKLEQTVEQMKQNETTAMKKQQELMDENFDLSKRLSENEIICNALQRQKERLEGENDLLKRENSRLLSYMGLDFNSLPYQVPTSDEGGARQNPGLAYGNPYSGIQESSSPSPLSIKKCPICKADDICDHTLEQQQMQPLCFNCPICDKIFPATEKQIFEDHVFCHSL

Variants of: B1
Settings: with gopc_human GOPC
D88V was tested, and the “effect of a mutation on the interaction” value was “with no effect”.

Variants of: B2
Settings: with bl1s6_human BLOC1S6, Q9UL45
For R373C, the “effect of a mutation on the interaction” value was “with no effect”.

Variants of: B2
Settings: with bl1s6_human BLOC1S6, Q9UL45
Remark: another data set of the same source
In the case of E202K, the “effect of a mutation on the interaction” value is reported as “with no effect”.

Variants of: B3
Settings: with kr107_human KRTAP10-7, P60409
For C16Y, the “effect of a mutation on the interaction” value was “disrupting interaction strength”.

Variants of: B4
Settings: with tfp11_human TFIP11, Q9UBB9
With R373C the “effect of a mutation on the interaction” value was “with no effect”.

Variants of: B4
Settings: with tfp11_human TFIP11, Q9UBB9
Remark: another data set of the same source
E202K was tested, and the “effect of a mutation on the interaction” value was “with no effect”.

Variants of: B5
Settings: with caco2_human CALCOCO2, Q13137
P194T was tested, and the “effect of a mutation on the interaction” value was “with no effect”.
